Data: US12295987B2, “Method of using a GIP/GLP1 co-agonist for diabetes” (Eli Lilly and Company, priority 2018, dated 2025)

target: T1, human gastric inhibitory peptide receptor (hGIPR) (Homo sapiens, UniProt P48546); assay: cAMP pharmacological functional assay in presence of 0.1% casein, hGIPR; type: cell-based; conditions: ratio of hGIPR to hGLP1R cAMP EC50 ratios
T1 construct: expressed in transfected cells; host or cells: HEK293
T1 sequence (P48546 22-466): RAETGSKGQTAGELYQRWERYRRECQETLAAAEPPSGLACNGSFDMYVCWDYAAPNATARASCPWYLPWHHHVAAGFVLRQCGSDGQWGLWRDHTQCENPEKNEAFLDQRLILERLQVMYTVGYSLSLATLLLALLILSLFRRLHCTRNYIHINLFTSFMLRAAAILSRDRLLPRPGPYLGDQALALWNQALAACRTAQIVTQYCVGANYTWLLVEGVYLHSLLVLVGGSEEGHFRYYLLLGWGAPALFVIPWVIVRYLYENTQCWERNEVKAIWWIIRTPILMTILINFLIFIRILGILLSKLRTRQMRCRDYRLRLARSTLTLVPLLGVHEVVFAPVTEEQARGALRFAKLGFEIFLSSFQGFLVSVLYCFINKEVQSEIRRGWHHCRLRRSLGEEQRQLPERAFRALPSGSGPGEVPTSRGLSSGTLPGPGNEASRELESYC

In order of falling “[hGIPR/hGLP1R] EC50 Ratio” value:
1. Y-Aib-EGT-αMeF(2F)-TSDYSI-αMeL-LD-Orn-K((2-[2-(2-Amino-ethoxy)-ethoxy]-acetyl)2-(γGlu)-CO—(CH2)16—CO2H)AQ-Aib-EFI-(D-Glu)-YLIEGGPSSGAPPPS-NH2 (YXEGTXTSDYSIXLDXKAQXEFIXYLIEGGPSSGAPPPS; Aib, Orn, αMe residues, lipidated Lys, D-Glu, amide; (2)..(2) Xaa at position 2 is Aib; (6)..(6) Xaa at position 6 is alpha-MeF(2F); (13)..(13) Xaa at position 13 is alpha-MeL; (16)..(16) Xaa at position 16 is Orn; MOD_RES (17)..(17) K at position 17 is chemically modified by conjugation of the epsilon-amino group of the K side chain with (2-[2-(2-amino-ethoxy)-ethoxy]-acetyl)2-(gamma-Glu)-CO-(CH2)16- CO2H; (20)..(20) Xaa at position 20 is Aib; (24)) [Peptide 2]  6.63
2. Y-Aib-EGT-αMeF(2F)-TSDYSI-αMeL-LD-Dap-K((2-[2-(2-Amino-ethoxy)-ethoxy]-acetyl)2-(γGlu)-CO—(CH2)16—CO2H)AQ-Aib-EFI-(D-Glu)-YLIEGGPSSGAPPPS-NH2 (YXEGTXTSDYSIXLDXKAQXEFIXYLIEGGPSSGAPPPS; Aib, αMeF(2F), αMeL, Dap, D-Glu; lipidated K; amide; (2)..(2) Xaa at position 2 is Aib; (6)..(6) Xaa at position 6 is alpha-methyl-Phe(2F); (13)..(13) Xaa at position 13 is alpha-methyl-Leu; (16)..(16) Xaa at position 16 is Dap; MOD_RES (17)..(17) Lys at position 17 is chemically modified by conjugation of the epsilon-amino group of the Lys side chain with (2-[2-(2-amino-ethoxy)-ethoxy]-acetyl)2-(gamma-Glu)-CO-(CH2)16- CO2H; (20)..(20) Xaa at positi) [Peptide 210]  5.24
3. Y-Aib-EGT-αMeF(2F)-TSDYSI-αMeL-LD-Dab-K((2-[2-(2-Amino-ethoxy)-ethoxy]-acetyl)2-(γGlu)-CO—(CH2)16—CO2H)AQ-Aib-EFI-(D-Glu)-YLIEGGPSSGAPPPS-NH2 (YXEGTXTSDYSIXLDXKAQXEFIXYLIEGGPSSGAPPPS; Aib, αMeF(2F), αMeL, Dab, D-Glu; lipidated K; amide; (2)..(2) Xaa at position 2 is Aib; (6)..(6) Xaa at position 6 is alpha-methyl-Phe(2F); (13)..(13) Xaa at position 13 is alpha-methyl-Leu; (16)..(16) Xaa at position 16 is Dab; MOD_RES (17)..(17) Lys at position 17 is chemically modified by conjugation of the epsilon-amino group of the Lys side chain with (2-[2-(2-amino-ethoxy)-ethoxy]-acetyl)2-(gamma-Glu)-CO-(CH2)16- CO2H; (20)..(20) Xaa at positi) [Peptide 209]  5.12
4. Y-Aib-EGT-αMeF(2F)-TSDYSI-Nle-LD-Orn-K((2-[2-(2-Amino-ethoxy)-ethoxy]-acetyl)2-(γGlu)-CO—(CH2)16—CO2H)AQ-Aib-EFI-(D-Glu)-YLIEGGPSSGAPPPS-NH2 (YXEGTXTSDYSIXLDXKAQXEFIXYLIEGGPSSGAPPPS; Aib, Nle, Orn, αMeF(2F), lipidated Lys, D-Glu, amide; (2)..(2) Xaa at position 2 is Aib; (6)..(6) Xaa at position 6 is alpha-methyl-Phe(2F); (13)..(13) Xaa at position 13 is Nle; (16)..(16) Xaa at position 16 is Orn; MOD_RES (17)..(17) Lys at position 17 is chemically modified by conjugation of the epsilon-amino group of the Lys side chain with (2-[2-(2-amino-ethoxy)-ethoxy]-acetyl)2-(gamma-Glu)-CO-(CH2)16- CO2H; (20)..(20) Xaa at position 20 is Aib;) [Peptide 249]  4.94
5. Y-Aib-EGT-αMeF(2F)-TSDYSI-αMeL-LD-Dap-K((2-[2-(2-Amino-ethoxy)-ethoxy]-acetyl)2-(γGlu)-CO—(CH2)18—CO2H)AQ-Aib-EFI-(D-Glu)-YLIEGGPSSGAPPPS-NH2 (YXEGTXTSDYSIXLDXKAQXEFIXYLIEGGPSSGAPPPS; Aib, αMeF(2F), αMeL, Dap, D-Glu; lipidated K; amide; (2)..(2) Xaa at position 2 is Aib; (6)..(6) Xaa at position 6 is alpha-methyl-Phe(2F); (13)..(13) Xaa at position 13 is alpha-methyl-Leu; (16)..(16) Xaa at position 16 is Dap; MOD_RES (17)..(17) Lys at position 17 is chemically modified by conjugation of the epsilon-amino group of the Lys side chain with (2-[2-(2-amino-ethoxy)-ethoxy]-acetyl)2-(gamma-Glu)-CO-(CH2)18- CO2H; (20)..(20) Xaa at positi) [Peptide 218]  4.34
6. Y-Aib-EGT-αMeF(2F)-TSDYSI-αMeL-LD-Orn-K((2-[2-(2-Amino-ethoxy)-ethoxy]-acetyl)2-(γGlu)-CO—(CH2)16—CO2H)AQ-Aib-EFI (D-Glu)-αMeY-LIEGGPSSGAPPPS-NH2 (YXEGTXTSDYSIXLDXKAQXEFIXXLIEGGPSSGAPPPS; Aib, Orn, αMe residues, lipidated Lys, D-Glu, amide; (2)..(2) Xaa at position 2 is Aib; (6)..(6) Xaa at position 6 is alpha-methyl-Phe(2F); (13)..(13) Xaa at position 13 is alpha-methyl-Leu; (16)..(16) Xaa at position 16 is Orn; MOD_RES (17)..(17) Lys at position 17 is chemically modified by conjugation of the epsilon-amino group of the Lys side chain with (2-[2-(2-amino-ethoxy)-ethoxy]-acetyl)2-(gamma-Glu)-CO-(CH2)16- CO2H; (20)..(20) Xaa at positi) [Peptide 236]  4.10
7. Y-Aib-EGT-αMeF(2F)-TSDYSI-αMeL-LD-Orn-K((2-[2-(2-Amino-ethoxy)-ethoxy]-acetyl)2-(γGlu)-CO—(CH2)18—CO2H)AQ-Aib-EFI-(D-Glu)-YLIEGGPSSGAPPPS-NH2 (YXEGTXTSDYSIXLDXKAQXEFIXYLIEGGPSSGAPPPS; Aib, Orn, αMe residues, lipidated Lys, D-Glu, amide; (2)..(2) Xaa at position 2 is Aib; (6)..(6) Xaa at position 6 is alpha-MeF(2F); (13)..(13) Xaa at position 13 is alpha-MeL; (16)..(16) Xaa at position 16 is Orn; MOD_RES (17)..(17) K at position 17 is chemically modified by conjugation of the epsilon-amino group of the K side chain with (2-[2-(2-amino-ethoxy)-ethoxy]-acetyl)2-(gamma-Glu)-CO-(CH2)18- CO2H; (20)..(20) Xaa at position 20 is Aib; (24)) [Peptide 3]  3.61
8. Y-Aib-EGT-αMeF(2F)-TSDYSI-Aib-LDEK((2-[2-(2-Amino-ethoxy)-ethoxy]-acetyl)2-(γGlu)-CO—(CH2)18—CO2H)AQ-Aib-EFI-(D-Glu)-YLIEGGPSSGAPPPS-NH2 (YXEGTXTSDYSIXLDEKAQXEFIXYLIEGGPSSGAPPPS; Aib, αMeF(2F), D-Glu; lipidated K; amide; (2)..(2) Xaa at position 2 is Aib; (6)..(6) Xaa at position 6 is alpha-methyl-Phe(2F); (13)..(13) Xaa at position 13 is Aib; MOD_RES (17)..(17) Lys at position 17 is chemically modified by conjugation of the epsilon-amino group of the Lys side chain with (2-[2-(2-amino-ethoxy)-ethoxy]-acetyl)2-(gamma-Glu)-CO-(CH2)18- CO2H; (20)..(20) Xaa at position 20 is Aib; (24)..(24) Xaa at position 24 is D-Gl) [Peptide 224]  3.32
9. Y-Aib-EGT-αMeF(2F)-TSDYSI-αMeL-LD-Dab-K((2-[2-(2-Amino-ethoxy)-ethoxy]-acetyl)2-(γGlu)-CO—(CH2)18—CO2H)AQ-Aib-EFI-(D-Glu)-YLIEGGPSSGAPPPS-NH2 (YXEGTXTSDYSIXLDXKAQXEFIXYLIEGGPSSGAPPPS; Aib, αMeF(2F), αMeL, Dab, D-Glu; lipidated K; amide; (2)..(2) Xaa at position 2 is Aib; (6)..(6) Xaa at position 6 is alpha-methyl-Phe(2F); (13)..(13) Xaa at position 13 is alpha-methyl-Leu; (16)..(16) Xaa at position 16 is Dab; MOD_RES (17)..(17) Lys at position 17 is chemically modified by conjugation of the epsilon-amino group of the Lys side chain with (2-[2-(2-amino-ethoxy)-ethoxy]-acetyl)2-(gamma-Glu)-CO-(CH2)18- CO2H; (20)..(20) Xaa at positi) [Peptide 217]  2.99
